Reference: US20020127645A1

Biological target: dimeric mouse-human chimeric IgA1 specific for the hapten dansyl (human) (UniProt P01876)
Test: densitometry of secreted proteins after immunoprecipitation and SDS-PAGE

UniProt P01876, sequence (P01876 other isoform, or with tags, fused parts or gaps mutant, chain 1 of 2, other chains not shown): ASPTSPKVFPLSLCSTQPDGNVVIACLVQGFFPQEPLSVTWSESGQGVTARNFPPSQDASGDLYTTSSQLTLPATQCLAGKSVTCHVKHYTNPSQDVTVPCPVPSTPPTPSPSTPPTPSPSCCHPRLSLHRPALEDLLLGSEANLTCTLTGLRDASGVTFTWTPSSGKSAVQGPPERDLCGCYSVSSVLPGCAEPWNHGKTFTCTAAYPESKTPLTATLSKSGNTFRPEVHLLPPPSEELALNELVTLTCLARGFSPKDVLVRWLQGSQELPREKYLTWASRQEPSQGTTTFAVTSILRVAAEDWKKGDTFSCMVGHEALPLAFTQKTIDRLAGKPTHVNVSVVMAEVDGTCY

- α chains per molecule of SC (stoichiometry) (α chains per SC): 4
Substance: human secretory component (SC), ectoplasmic domain of the human polymeric Ig receptor (pIgR) ending at Glu589 (from UniProt P01833 19-607)
